Source: US20030091567A1 (published 2003)

Tests used:
[1] = molecular target: Flt4 receptor tyrosine kinase (VEGFR-3) expressed on cells (human) (UniProt P35916); assay: Scatchard analysis with 125I-labelled VEGF-C ΔNΔCHis (cell binding, PAE/VEGFR-3 cells)
[2] = molecular target: T1, recombinant Flt4 extracellular domain with C-terminal 6xHis tag (baculovirus), coupled to Sepharose (human, UniProt P35916 25-775); assay: depletion with Flt4EC affinity matrix, read out by VEGFR-2 phosphorylation
T1 construct: extracellular domain; also called Flt4EC; Flt4 EC
T1 sequence: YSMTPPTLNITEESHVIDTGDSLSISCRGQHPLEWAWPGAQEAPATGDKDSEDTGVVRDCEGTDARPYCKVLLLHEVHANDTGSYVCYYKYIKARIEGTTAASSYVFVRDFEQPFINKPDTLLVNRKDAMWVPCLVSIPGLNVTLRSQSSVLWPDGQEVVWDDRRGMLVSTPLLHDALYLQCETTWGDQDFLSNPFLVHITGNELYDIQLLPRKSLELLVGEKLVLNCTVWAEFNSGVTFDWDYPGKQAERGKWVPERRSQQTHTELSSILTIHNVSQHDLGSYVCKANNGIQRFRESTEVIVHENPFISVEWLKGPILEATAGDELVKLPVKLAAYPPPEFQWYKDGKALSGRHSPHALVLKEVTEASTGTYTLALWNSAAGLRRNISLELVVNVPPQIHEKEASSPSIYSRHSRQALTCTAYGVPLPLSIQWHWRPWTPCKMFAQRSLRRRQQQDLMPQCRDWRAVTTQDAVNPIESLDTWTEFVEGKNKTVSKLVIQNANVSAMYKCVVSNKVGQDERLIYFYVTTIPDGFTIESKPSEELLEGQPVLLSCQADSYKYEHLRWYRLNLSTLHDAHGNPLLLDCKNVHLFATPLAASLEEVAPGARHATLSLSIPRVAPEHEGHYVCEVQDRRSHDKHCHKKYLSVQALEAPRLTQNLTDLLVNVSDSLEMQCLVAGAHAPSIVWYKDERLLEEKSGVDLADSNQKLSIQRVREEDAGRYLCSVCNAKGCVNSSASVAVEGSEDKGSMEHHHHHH

[3] = molecular target: T2, 32 kD VEGF-C polypeptide (amino acids 32-227 of prepro-VEGF-C) (human, UniProt P49767 32-227); assay: non-reducing and reducing SDS-PAGE of immunoprecipitates
T2 construct: also called 32 kD form; 31 kD
T2 sequence: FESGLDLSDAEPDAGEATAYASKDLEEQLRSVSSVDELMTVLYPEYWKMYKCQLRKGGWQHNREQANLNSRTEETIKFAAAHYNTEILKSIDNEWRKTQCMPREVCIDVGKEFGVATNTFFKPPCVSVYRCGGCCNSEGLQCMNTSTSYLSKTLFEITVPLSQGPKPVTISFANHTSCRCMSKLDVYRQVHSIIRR
Protocol: The immunoprecipitates from each cell culture were subjected to SDS-PAGE under non-denaturing conditions (FIG. 6B). Bands 1-6 were cut out from the gel, soaked for 30 minutes in 1×gel-loading buffer containing 200 mM β-mercaptoethanol, and individually subjected to SDS-PAGE under denaturing conditions (FIGS. 6A and 6C, lanes 1-6).

## VEGF-C ΔNΔCHis (from UniProt P49767 103-225) (ligand)
[1]
  Kd: 0.135 nM

B1: recombinant human VEGF165 (ligand)
chain: APMAEGGGQNHHEVVKFMDVYQRSYCHPIETLVDIFQEYPDEIEYIFKPSCVPLMRCGGCCNDEGLECVPTEESNITMQIMRIKPHQGQHIGEMSFLQHNKCECRPKKDRARQENPCGPCSERRKHLFVQDPQTCKCSCKNTDSRCKARQLELNERTCRCDKPRR
notes: Bought protein; also called recombinant human VEGF (R&D Systems)
[2]
  binding result: no binding (tested: 50 ng/ml)

B2: 29 kD VEGF-C polypeptide (beginning with amino acid 228 of prepro-VEGF-C) (other)
chain: SLPATLPQCQAANKTCPTNYMWNNHICRCLAQEDFMFSSDAGDDSTDGFHDICGPNKELDEETCQCVCRAGLRPASCGPHKELDRNSCQCVCKNKLFPSQCGANREFDENTCQCVCKRTCPRNQPLNPGKCACECTESPQKCLLKGKKFHHQTCSCYRRPCTNRQKACEPGFSYSEEVCRCVPSYWKRPQMS
notes: C-terminal propeptide; also called 29 kD component; 29 kD form
[3]
  binding result: binds
